Source: patent publication US20200261595A1

Molecular target: insulin receptor of isolated rat adipocytes (rat) (UniProt P15127)
Assay: cell-based or functional assay

Sequence of insulin receptor of isolated rat adipocytes (rat) (P15127 27-1383): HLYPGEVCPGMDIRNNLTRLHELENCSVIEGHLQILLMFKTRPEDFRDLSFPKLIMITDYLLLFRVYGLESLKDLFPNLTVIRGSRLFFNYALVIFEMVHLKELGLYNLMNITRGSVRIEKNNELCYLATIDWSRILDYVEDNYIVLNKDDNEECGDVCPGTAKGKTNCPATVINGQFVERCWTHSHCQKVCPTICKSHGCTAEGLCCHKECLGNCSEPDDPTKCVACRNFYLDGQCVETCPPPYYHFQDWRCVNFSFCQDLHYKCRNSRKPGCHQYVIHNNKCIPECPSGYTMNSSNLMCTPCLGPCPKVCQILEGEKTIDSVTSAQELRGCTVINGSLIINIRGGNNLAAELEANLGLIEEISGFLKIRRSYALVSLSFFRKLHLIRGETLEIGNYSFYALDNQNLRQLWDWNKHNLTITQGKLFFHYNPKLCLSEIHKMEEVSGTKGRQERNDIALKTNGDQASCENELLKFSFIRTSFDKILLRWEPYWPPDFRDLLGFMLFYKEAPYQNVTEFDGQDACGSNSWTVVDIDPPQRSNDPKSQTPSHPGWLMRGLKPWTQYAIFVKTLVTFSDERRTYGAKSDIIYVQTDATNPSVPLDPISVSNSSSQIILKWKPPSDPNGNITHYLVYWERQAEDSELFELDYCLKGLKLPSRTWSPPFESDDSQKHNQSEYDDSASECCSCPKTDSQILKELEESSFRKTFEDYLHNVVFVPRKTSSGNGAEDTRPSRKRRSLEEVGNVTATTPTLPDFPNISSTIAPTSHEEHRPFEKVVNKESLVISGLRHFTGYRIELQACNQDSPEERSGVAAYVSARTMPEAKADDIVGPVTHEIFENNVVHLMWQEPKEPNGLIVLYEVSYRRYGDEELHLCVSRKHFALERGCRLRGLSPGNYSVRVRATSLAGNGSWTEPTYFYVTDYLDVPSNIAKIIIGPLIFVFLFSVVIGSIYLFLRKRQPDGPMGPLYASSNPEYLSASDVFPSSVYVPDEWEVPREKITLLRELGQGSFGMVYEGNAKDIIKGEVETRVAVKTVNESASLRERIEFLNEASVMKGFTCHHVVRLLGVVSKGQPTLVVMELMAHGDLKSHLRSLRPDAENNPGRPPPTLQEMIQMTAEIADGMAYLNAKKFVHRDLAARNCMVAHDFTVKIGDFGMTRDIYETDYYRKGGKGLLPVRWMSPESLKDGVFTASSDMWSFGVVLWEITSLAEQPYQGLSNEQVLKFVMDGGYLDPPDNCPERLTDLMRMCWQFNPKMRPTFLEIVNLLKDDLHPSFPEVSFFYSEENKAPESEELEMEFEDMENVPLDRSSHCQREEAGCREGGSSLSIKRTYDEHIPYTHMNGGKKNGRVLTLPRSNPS

“(A14E, A21G, A22(GQEP)19, 98K^, A99P, B25H, B29R, desB30 human insulin)/(226A, 227G, 228P, 234A, 235K, des447 hIgG4-Fc(228-447)) 3,5-bis[(2-acetyl)amino]benzoyl conjugate (from UniProt P01861 109-325)” was tested, and the Lipogenesis in rat adipocytes [Potency (%)] Mean Value (% of human insulin) was 5.44.
“A14E, B(-78K^), B(-77P), B(-1)(GQAP)19, B25H, B29R, desB30 human insulin/(227A, 234A, 235K, 297E, 315Q, 384Q, des447 hIgG4-Fc(228-447)) 4-[bis[2-[(2-acetyl)amino]ethyl]amino]-4-oxo-butanoyl conjugate (from UniProt P01861 108-325)” gave a Lipogenesis in rat adipocytes [Potency (%)] Mean Value (% of human insulin) of 0.87.
